Test results taken from PMC4069081, “Multivalent Viral Capsids with Internal Cargo for Fibrin Imaging” (PLoS ONE, 2014).

Tests used:
fibrin [1] = conditions: competitive binding to the fibrin polymerization pocket; ref [39], [40]; cited from earlier work
Source text: (§1) In this work, a peptide targeting group (GPR) with an affinity for fibrin was chosen to create a thrombus targeted VLP [38]. The GPR peptide was derived from the N-terminus of the α-chain of fibrin (Gly-Pro-Arg), and was discovered to bind to a pocket in the C-terminal region of the γ-chain [39], [40].

[2] = target: fibrin clots formed from purified bovine fibrinogen with thrombin and CaCl2 (bovine) (UniProt P12799)
fibrin [3] = conditions: compared with original peptide (Gly-Pro-Arg); ref [41]; cited from earlier work
Method: In this work, a peptide targeting group (GPR) with an affinity for fibrin was chosen to create a thrombus targeted VLP [38]. The GPR peptide was derived from the N-terminus of the α-chain of fibrin (Gly-Pro-Arg), and was discovered to bind to a pocket in the C-terminal region of the γ-chain [39], [40]. […] A GPR peptide bearing an o-aminophenol for coupling to MS2 was prepared using solid phase peptide synthesis (Figure 1b). The sequence Gly-Gly-Ser-Lys-Gly-Tyr was added to the peptide to increase the spacing between the binding residues and the capsid, as well as provide a functional handle for modification (Tyr). For peptide samples used in op ...

[4] = compared with original peptide (Gly-Pro-Arg); ref [41]; cited from earlier work
Source text: as §1

In the case of “Gly-Pro-Arg [originally discovered peptide from N-terminus of the α-chain of fibrin]”, the “Inhibition of thrombin-mediated fibrin clotting” value (fibrin [1]) is listed as “inhibit thrombin-mediated fibrin clotting”.
In the case of “MS2 capsids (T19pAF/N87C) without peptide”, the thrombin-induced clotting time of fibrin (light scattering at 350 nm) at 222 nM MS2 capsid; unchanged [2] is reported as 16 min.
For Gly-Pro-Arg-Pro-Pro, the “Fibrin binding of extended peptide” value (fibrin [3]) is listed as “improved fibrin-binding” and the Proteolytic resistance [4] is listed as “increased proteolytic resistance”.
With “free GPS peptide with C-terminal tyrosine” the thrombin-induced clotting time of fibrin (light scattering at 350 nm) at 20 µM peptide; unchanged [2] was 13 min.
For “free GPR peptide with C-terminal tyrosine”, the peptide concentration at which thrombin-induced clotting is inhibited (10 µM to 1.7 mM tested) [2] was > 300 µM and the thrombin-induced clotting time of fibrin (light scattering at 350 nm) at 20 µM peptide; unchanged [2] was 18 min.
For “GPR-MS2: bacteriophage MS2 T19pAF/N87C capsid with the GPR fibrin-targeting peptide coupled to its exterior”, the thrombin-induced clotting time of fibrin (light scattering at 350 nm) at 222 nM MS2 capsid (~20 µM peptide) [2] was 51 min.
Work on “GPS-MS2: bacteriophage MS2 T19pAF/N87C capsid with the GPS control peptide coupled to its exterior” yielded a thrombin-induced clotting time of fibrin (light scattering at 350 nm) at 222 nM MS2 capsid (~20 µM peptide); unchanged [2] of 16 min.
